Reference: the nanobody polyreactivity screen of Harvey et al. (2022)

Assay: yeast display, Sf9 membrane polyspecificity reagent, FACS + sequencing; frameworks hold sequencing errors
Method in brief: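 A nanobody's polyreactivity label depends on the gate it was sorted from. Yeast display cells were stained with 10% biotinylated, detergent-solubilized Sf9 membrane reagent for 1 hour at 4 °C, enriched on streptavidin microbeads and sorted by FACS. The low and high (top ~1%) gates were set on anti-HA fluorescence for expression and streptavidin fluorescence for reagent binding.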

Sequence | polyreactivity (PSR sort gate)
QDQLVESGGGLVQGGGSLRLSCAGSGFTFSRYAMGSYRQAPGKERELVAAITRRRGRTYYADSVKGRFTISLDNAKNTVYFKMNSLYPEDTAVYYCNTDAYRLGYDYWGQGTQVTVSS | high polyreactivity
QDQLVESGGGVVQAGGSLRLSCAASGSTFEYNAMGWYRQAPGKERELVASSTNYADSVKGRFTISRDNAKNTVYLQMNSLKPEDTAVYYCGREQGVNRNHDYWGQGTQVTVSS | low polyreactivity
QDQLVESGRGLVQAGGSLRLSCAASGINIPVYAMGWYRKAPRKERELLAAISSGGSTYYADSVKGRFTISRDNAKNTVYLQMNSLKPEDTAVYYCAAATRSAKYRFGYWGQGTQVTVSS | high polyreactivity
QDQLVESGRGLVQEGGSLRLSCAASGSIFWSNGMGWYRQAPGKERELVATISSSGSDTYYAASVKGRFTISRDTAKNTVYFQMNSLKPEDTAVYYCNVYSIWGTYDYRGQGTQVTVSS | low polyreactivity
QDQLVESGVGFVQAGVSLRLSSAASGSIFYLNAMGWYRQAPGKERELVAAITNGGSTYADSVKGRFTISRDNAKNTVYLPMNSLKPEDPAVYYCATRSWELGDYLGQGTQVTVSS | low polyreactivity
QDQLVESRGGLVQAGGSLRLSCAASGFTFYRYAMGWYRQAPGKERELVAAITWRGTSTYYADSVKGRFTISRDNAKNTVYLQMNSLKPEDTAVYYCNADRGYKYDYWGQGTQVTVSS | high polyreactivity
QDQLVESRGGLVQAGGSLRLSCAASGSIFIENTMGWYRQAPGKERELVAAISGSVGRTFYADSVKGRFTISRDNAKNTVYLQMNSLKPEDTAVYYCAAVRRTSPGWVYYWGQGTRVTVSS | high polyreactivity
QDQLVESRVGLVQAGGSLRLSCAASGRIIPKYAMGWYRQAPGKERELVAAISSSGGSTYYADSVKGRFTISRDYAKNNVYLQMNSLNPEVTAVYYCNVDKATRYRYPGFDYWGQGTQVSVSS | high polyreactivity
QDQLVESRVGLVQAGGSLRLSCAATGFTFLSYTMGWYIQAPCKERELLADNTRSGGSTYYADSVKGRFTISRDNAKNSVYLQMNSLKPEDTAVYFCAARYSYDRYRGSQQFYYWGQGTQVTVSS | high polyreactivity
QDQLVESVGGIVQAGGSLRLRCAASGFIYSRNAIGWYSEAPGKDREFVARIRWSVGSTYYADSVKGRFTISRENAKNTVYLMMTSLKPEVTAVYSCAADYYKRYKYLYDYWGQGTQVTVSS | high polyreactivity
QDQLVESVGGLVQAGGSLRLSCAASGSIFIGYAMGWYRQAPGKERELVAAITSGGSTYADSVKGRFTISRDNAKNTVYLQMNSLKPEDTAVYYCAARFFLVTLDYCGQGTQVTVSS | low polyreactivity
QDQLVESWGGLDKAGGSLLLICDASGSTFKFYTMGWYRQAPGKERELVATIDWSGVSTYYADSVKGRFTISRDNAKNTVYLQMNSLKPEDTAVYYCAARSLRLVGPYYYWGQGTQVTVSS | high polyreactivity
QDQLVETLGGLVQAGASLRLSCAASGSIFGNNAMVWYRQEPGKERELVAAISGTGGTTYADSVKGRFTISRDNAKNTVYLQMNSLKPEDTAVYYWALRVWVRDYPFGYARYGYWGQGTQVTVSS | low polyreactivity
QDQLVQSGGGLVQAGGSLRLSCAASAITFVIYSMGWYRQAPGKERELVAAIDGSDGSTYYADSVKGRFTISRDTAKNTVYLQMNSLKPEDTAVYYCNADTGGYYVTGSYLYNEYDYWGQGTQVTVSS | low polyreactivity
QDQLVQSGGGLVQAGGTLRLSCAASGRIIYVNAMGWYRQAPGKERDFVATITRGGSTYYADSVKGRFTISRDNAKNTVYFQMNSLQPEDTAVYYCATVRGGWKGRGHRNDYWGQGTQVTVSS | high polyreactivity
QDQQVESGGGLVQAGGSLRLSCAASGFTFRKKAKGWYRQAPGKERELVAAISASGGSTYYADSVKGRFTISRDNAKNTVYLQMNSLKPEDTDVFYCARDRSNAFNYWGQGTQVTVSS | high polyreactivity
QEKHVESGGGLVQAGGSLLLSCAASGLTFYHNAMGWYRQAPGKERELVAAISSGGTTNYADSVKGRFTISRDNAKNTVYLQMNSLTPEDTAVYYCAARGWGPTRAYDYWGQGTQVTLSS | high polyreactivity
QEKLQESGSGLVQAGGSLRLSCAASGNIFQDWVMRWYRQAPGKERELVAAISPGAITYYADSVKGRFTISRDNAKNTVYLQTNSLKPEDTAVYYCAAYYIVEYLHGYWGQGTRVTVSS | low polyreactivity
QEQLLESGGGLLQAGGSLRLSCAASGSNFVSVTMGWYRQATGKELELVASIGRGSTTNHADSVKGRFTISRDNAKNIVYLLMNSLKPEDTAVYYCAALESYGKYHGYWGQGTQVTVSS | low polyreactivity
QEQLQERGGGLVQAGGSQRLGCAASGNISDAGYMGLYRQAPGKERELVAAIAAGSNTNYADSVKGRFTISRDNAKNTVYLQMNSLKPEDTAVFYCAVASYALVQYEYWGQGTQVTVNS | low polyreactivity
QEQLQESGGCLVQAGGSLRLSCAASGSIFYVYGMGWFRQPPGKELELVAGINDGTNTNYADSVRGRFTISRDNAKNTVLLQMNSLKPEDTAVYYCAADGNCYQAHEYWGVGTQVTVSS | high polyreactivity
QEQLQESGGCPVLAGGSLRLSCAASGTIFVRLDMGWYRQAPGKEREFVATIGSGSSTYYADSVKGSFTISRDNVKNTVYLQMNSLKPEDTAVYYCAVSAAEQSRHYYWDQGTQVTVSS | low polyreactivity

Sequence | polyreactivity (PSR sort gate)
QEQLQESGGGLVLAGGSLSLSCPESGYISWSFTMGWYRKAPGKEREFVAGITYGGITYYADSVKGRFTIRRDNGKNTVYLQLNSLKPEDTAVFYCAAPQTYPYVYVYWGQGTQVTVCS | high polyreactivity
QEQLQESGGGLVQAGDSPRLSCAESGYISARTGMGSYRQAPGKEREFVAGIASGTSTHYADSVKGRFTISRDNAKNAVYLQMNSLKPEDTAVYYCAKDYRYIFIYPYGWTRYDYWGQGTQVTVSS | low polyreactivity
QEQLQESGGGLVQAGGDLRLSCAESGNIFRDYIMGWYRQAPGKEREFVAGIDRGANTNYADSVKGRFTISRDNAKNTVYLQMNSLKPEDTAVYYCAVHTAIVPDFIYWGQGTQVTVSS | low polyreactivity
QEQLQESGGGLVQAGGSLRLSCAASGNIYDADIMGWYRQAPGKERELVTSITDGGSTNYADSVKGRFTISRDNAKNTVYLQMNSLKPEDTAVYYCAAIAYPDIPTSFDYNSDYSYWGQGTQVTVSS | low polyreactivity
QEQLQESGGGLVQAGGSLRLSCAASGSISGSSTMGWYRQAPGKERELVASIAVGANTNYADSAKGRFTISRDNAKNTVYLQMNSLKPEDTAVYYCAVDYYIYYFHYWGQGTQVTVSS | high polyreactivity
QEQLQESGGGLVQAGGSLRLSCAASGSISQAWYMGWYRQAPGKERELVAAINVGAITYYADSVKGRFSISRDNAKNTVYLPMNSLTPEDTAVYYCAVDQYSEAYYDYWGQGTQATVSS | high polyreactivity
QEQLQESGGGLVQEGGSLRLSCAASGNISPPADMGWYRQAPGKERELVASIGTGGTTNYADSVKGRFTISRDNAKNTVYLQMNSLKPDDTAVYYCAAVRYEYNPYDYWGQGTQVTVSS | low polyreactivity
QEQLQESGGGMVQVGGTLRLSCAATGTIFIYGFLGWNRQAPGKERELVASINLGGITNYADSVKGRFTISRDNAKNTVYLQMISLKPEDTAVYYCAAYLVTGQNYGYWGQGTQVTVSS | low polyreactivity
QEQLQESGSGLVQAGGSLRLICAASRNIFQDWVMGWYRKEPGKEPELVAAISPGAITYYADSVKGRFTISRDNAKNTVYLQTNSLKPEDTAVYYCGAYYIVEYLHGYWGQGTRVTVSS | low polyreactivity
QEQLVESAGGLVQAGGSLRLSCAASGSTFYRYAMGWNRQAPGKERELVAAITSSGGSTYYADSVKGRFTISRDNAKNTVYLQMNRLKPEDTAVYYWNAVRRRQSDYWGQGTQVTVSS | high polyreactivity
QEQLVESGGGLVQAGGSLRLSCAASGFTFWYYAMGWYRQAPGKEREFVAAISLGGGRTYYADSVKGRFTHSRDNAKNTVYLQMNSLKPEDTAVYYCAVDSGTYRSYRYDYCGQGTQVTVSS | high polyreactivity
QEQLVESGGGLVQAGGSLRLSCAASGSIQPNAMGWYRQAPGKEREFVAAISRSGASTYYADSVKGRFTISRDNAKNTVYLQMNSLKPADTAVYYCAADFYYYNNNDYDYWGQGTQVTVSS | high polyreactivity
QEQLVESGGGLVQAGGSLRLSCAPSGSIMYVYAMGWYRPAPGKERELVAVITSGGSTTYADSVKGRFTMSRDNAKNTVYLQMNSLKPEDTAVYYCAAVPYSVYGGDYWGQGTQVTVSS | low polyreactivity
QFHLVESGGGLVQAGGSLRLTCAASGRTFAYYAMGWYRQAPGKEREMVAGITRNGGSTYYADSVKGRFTISRDNAKNTVYLQMNSLKPEDTAVYYCAAGFTTRRGEYNYWGKGTQVTVSS | high polyreactivity
QFHLVETGRGLVQAGGSLRLSCAASGVTYSQYAMGWYRQAPGKERELVARISRRRGSTSYADSVKGRCTISRDNAKNTVYLQMNRMKPEDTAVYYCAKDSPSVYPGRFGNTGGYAYDYWGQGTQVTVSS | high polyreactivity
QFKLVESGGVLVKEGGRLRLICAASGSTFDENDMGRYRQAPGKEMEIVAVIYIGTSTNYADSVKGRFTISRDNAKNTVYLQMNSLKPEDTAVYYCAADVPGSYLVAIVGNAFNYWGQGTQVTVSS | low polyreactivity
QFQHVESGGGLVQAGGSLRLSCAASGNTFYVYAMGWYRQAPGKERELVAGITTSGGSTYYADSVKGRFTISRDNAKNTVYLQMNSLKTEDTAVYYCATDISTSYYYKYSSFYQYDSWGQGTQVTVSS | low polyreactivity
QFQLEESGGGLVQAGGSIRLSCAASGFILDSYGMGWYRQAPGTERELVAAISQSDVSTYYADSVNGRYTISRDNAKNTVYLHMNSLKPEDTAVYYCAADRGGLRWFWQVLFDYWGQGTQVTVSS | low polyreactivity
QFQLEESGGGLVQAGGSLRLSCAASGITFRRYTMGWYRQAPGKERELVATISLSDGNTYYADSVKGRFTISRDNAKNTVYYQMNSLKPEDTAVYYCNARHTWHQTYDYWGQGTQVTVSS | low polyreactivity
QFQLEESGGGLVQAGGSLRLSCAASGSTFLRYAMGWYRQAPGKERELVAAITGRGTRTYYADSVKGRFTISRDNAKNTVYLQMNSLKPEDTAVYYCAAELSFTPRYYEGRIFYYWGQGTQVTVSS | high polyreactivity
QFQLLDSGGGLVQAGGSLRLSSAPSGFTIIGYDMGWYRQAPVKERELVAAIDWSGGSTYYADSVKGRFTISRDNAKYSVDLQMHSLKPEDTAVYYCNAEWSSKRFTGDDYWGQGTQVTVSS | low polyreactivity
